Article PMC8049983

Molecular target: V3A3E3 PA conjugated to carboxytetramethylrhodamine
Assay: FRET or BRET

Substance: V3A3E3 PA conjugated to fluorescein isothiocyanate (peptide)
- FRET ratio: 0.6 to 0.7
